Earlier results in article PMC3393814.

Target: Nrf2 14mer peptide (Homo sapiens)
Test: ITC

In the case of Keap1 (from UniProt Q14145), the Kd is listed as 20 nM.
